Measurements as given in patent US12103951B2, “Use of CGRP receptor antagonists in neuroprotection and neurological disorders” (priority 2016, dated 2024).
Like-named read-outs stand apart in the source and are kept apart here. Marks after values point to notes of the source that are not given here.

Tests used:
retinal astrocytes = assay: Rat laser glaucoma model: total number of GFAP-immunoreactive cells (retinal astrocytes); type: in vivo, Wistar rats; settings: between the groups (CGRP antagonist vs vehicle)
Protocol: In this study, Wistar rats (n=12) were used for the experiments. The neuroprotective properties of compounds were investigated in a rat laser model of glaucoma. Rats were divided into two groups of six rats each. One group served as a placebo control receiving vehicle (NaCl) injections, and the other was treated with a peptide CGRP receptor antagonist (SEQ ID NO: 1). For all 12 rats, the contralateral, untreated eye served as a naïve undiseased control. The vehicle control and test compound (20 mg/kg) were administered systemically (IP) daily for the whole follow-up period of two weeks. The animals were sacrificed using transcardial perfusion. The retinal whole-mounts were then immuno-stained against retinal ganglion cell (RGC) marker Brn3a and astrocytic marker GFAP (glial fibrillary acidic protein). The number of Brn3a positive profiles was manually counted from retinal images taken from central and peripheral parts of retina. The total number of GFAP-immunoreactive cells (retinal astrocytes) was estimated using stereology. […]
1. Quantification of Brn3a and GFAP-positive cells from retinal whole mounts manually and using stereology.
Retinal whole mounts were immuno-stained against RGC (Brn3a) and astrocytic (GFAP) antibodies and the number of cells was quantified either manually (Brn3a) or as previously described (Kalesnykas et al., 2008). […]

[1] = system: Total Cholesterol, Triglycerides, Low-density lipoprotein and High-density lipoprotein; type: in vivo, Sprague Dawley rats; parameters: HDL / LDL: unit not given here; settings: for HDL / LDL / T. Chol / Trig: mean, n = 5; for effect on LDL levels in rats (words): normal rats, s.c. daily 14 days, especially male rats, every test dose 100 to 1000 mcg/kg
Protocol: Sprague Dawley rats were administered the CGRP antagonist daily via the subcutaneous route for a period of 14 days, resulting in the surprising effect of LDL lowering. Fifty six animals (36 males and 20 females) were distributed into four groups (consisting each of 5 males and 5 females per group and 4 extra males each for testing group as backups). The groups were as follows: G1—Control, G2—Low dose—100 mcg/kg, G3—Intermediate dose—300 mcg/kg, G4—High dose—1000 mcg/kg.
Rats from the treatment groups were dosed subcutaneously with CGRP receptor antagonists (SEQ ID NO: 1) reconstituted with normal saline at different dose levels per treatment group for 14 days. Control animals were dosed with the vehicle alone.
The acclimatization period was, at a minimum, 7 days. For the randomization, animals were selected and grouped based on stratified randomization by using body weights one day before dosing (day 0) using an Excel program. The route of administration of the antagonist was by a subcutaneous method. The frequency of the administration was daily for fourteen days. The dose volume was set at 5 ml/kg of body weight. The duration of the treatment was fourteen days with administration occurring approximately at the same time each day.
While preparing the dose formulation, required quantities of test item (i.e. CGRP antagonist) was weighed separately. The required volume of normal saline was added to the test item. A clear solution was obtained after addition of normal saline to test item. The test item was administered subcutaneously at the desired dose level once daily for up to 14 days. Homogeneity of the test item in the vehicle was maintained during administration.
The following observations were recorded: • 1. […] Body Weight • Body weight was recorded on day 1, 7, 11 and 15. • 3. Feed Consumption • Feed consumption was recorded daily and reported weekly. • 4. Blood Collection and Laboratory Investigations • Blood samples for were collected from all animals on day 15. The animals were fasted overnight before blood sampling but allowed access to water ad libitum for hematology and biochemistry. Blood samples were drawn from the retro-orbital plexus using a micro-hematocrit heparinized glass capillary tube. Blood samples were centrifuged (3500 rpm) and after centrifugation plasma was separated for further analysis.
Total Cholesterol, Triglycerides, Low-density lipoprotein and High-density lipoprotein parameters are shown in Tables 4 and 5, for male and female rats, respectively. Data from the LDL analysis is shaded.

[2] = female rats, 100 mcg/kg b.w. s.c. daily 14 days, day 15
[3] = female rats, 300 mcg/kg b.w. s.c. daily 14 days, day 15
[4] = female rats, 1000 mcg/kg b.w. s.c. daily 14 days, day 15
[5] = male rats, 100 mcg/kg b.w. s.c. daily 14 days, day 15
[6] = male rats, 300 mcg/kg b.w. s.c. daily 14 days, day 15
[7] = male rats, 1000 mcg/kg b.w. s.c. daily 14 days, day 15

## NH2-Ala-Cys-Asp-Thr-Ala-Ala-Cys-Val-Leu-Gly-Arg-Leu-Ser-Gln-Glu-Leu-His-Arg-Leu-Gln-Thr-Tyr-Pro-Arg-Thr-Asn-Val-Gly-Ser-Lys-Ala-Phe-NH2 (H-ACDTAACVLGRLSQELHRLQTYPRTNVGSKAF-NH2; ends and bridges not checked) [SEQ ID NO: 1, peptide CGRP receptor antagonist]
Retinal astrocytes
  total number of retinal astrocytes: no differences
[1]; day 15, vs control, data not shown
  other non-cholesterol related clinical biochemistry parameters: none were significantly different from control
[1]; [2]
  HDL: 59.00
  LDL: 11.08
  T. Chol: 84.20 mg/dL
  Trig: 70.60 mg/dL
[1]; [3]
  HDL: 61.60
  LDL: 12.60
  T. Chol: 91.00 mg/dL
  Trig: 84.00 mg/dL
[1]; [4]
  HDL: 54.80
  LDL: 9.40
  T. Chol: 80.60 mg/dL
  Trig: 82.00 mg/dL
[1]; [5]
  HDL: 51.60
  LDL: 2.96
  T. Chol: 78.00 mg/dL
  Trig: 121.40* mg/dL
[1]; [6]
  HDL: 46.00
  LDL: 4.16
  T. Chol: 69.60 mg/dL
  Trig: 97.20 mg/dL
[1]; [7]
  HDL: 37.00
  LDL: 4.72
  T. Chol: 58.20 mg/dL
  Trig: 82.40 mg/dL
[1]
  effect on LDL levels in rats (words): lowered LDL concentrations in blood
[1]; listed as CGRP antagonist
  effect on LDL levels in rats (words): LDL lowering
[1]; listed as CGRP receptor antagonist
  effect on LDL levels in rats (words): substantial LDL lowering
[1]; listed as peptide CGRP antagonist
  effect on LDL levels in rats (words): lowering the LDL levels
